In patent US10801046B2, “Methods and materials for biosynthesizing multifunctional, multivariate molecules via carbon chain modification” (INVISTA NORTH AMERICA S.A.R.L., priority 2016, dated 2020):

Key:
[1] = Carboxylate reductase activity, heptanedioate to 7-oxoheptanoate, NADPH consumption at 340 nm; format: biochemical; details: enhanced by gene product of sfp, 2 mM substrate, 20 min, against empty vector control, FIG. 43
Protocol: A sequence encoding a HIS-tag was added to the genes from Segniliparus rugosus and Segniliparus rotundus that encode the carboxylate reductases of SEQ ID NOs: 31 (GenBank Accession No. EFV11917.1) and 38 (GenBank Accession No. ADG98140.1), respectively, such that N-terminal HIS tagged carboxylate reductases could be produced. Each of the modified genes was cloned into a pET Duet expression vector along with a sfp gene encoding a HIS-tagged phosphopantetheine transferase from Bacillus subtilis, both under the T7 promoter. Each expression vector was transformed into a BL21[DE3] E. coli host and the resulting recombinant E. coli strains were cultivated at 37° C. in a 250 mL shake flask culture containing 50 mL LB media and antibiotic selection pressure, with shaking at 230 rpm. Each culture was induced overnight at 37° C. using an auto-induction media.
The pellet from each induced shake flask culture was harvested via centrifugation. Each pellet was resuspended and lysed via sonication, and the cell debris was separated from the supernatant via centrifugation. […]
Enzyme activity assays (i.e., from heptanedioate to 7-oxoheptanoate) were performed in triplicate in a buffer composed of a final concentration of 50 mM HEPES buffer (pH=7.5), 2 mM heptanedioate, 10 mM MgCl2, 1 mM ATP, and 1 mM NADPH. […] The consumption of NADPH was monitored by absorbance at 340 nm.

[2] = Carboxylate reductase activity, 7-hydroxyheptanoate to 7-hydroxyheptanal, NADPH consumption at 340 nm; format: biochemical; details: enhanced by gene product of sfp, 20 min, against empty vector control, FIG. 44
Protocol: A sequence encoding a His-tag was added to the genes from Mycobacterium marinum, Mycobacterium smegmatis, Segniliparus rugosus, Mycobacterium smegmatis, Mycobacterium massiliense, and Segniliparus rotundus that encode the carboxylate reductases of SEQ ID NOs: 25 (GenBank Accession No. ACC40567.1), 27 (GenBank Accession No. ABK75684.1), 29 (GenBank Accession No. ABK71854.1), 31 (GenBank Accession No. EFV11917.1), 37 (GenBank Accession No. EIV11143.1), and 38 (GenBank Accession No. ADG98140.1) such that N-terminal HIS tagged carboxylate reductases could be produced. Each of the modified genes was cloned into a pET Duet expression vector alongside a sfp gene encoding a His-tagged phosphopantetheine transferase from Bacillus subtilis, both under control of the T7 promoter.
Each expression vector was transformed into a BL21[DE3] E. coli host and the resulting recombinant E. coli strains were cultivated at 37° C. in a 250 mL shake flask culture containing 50 mL LB media and antibiotic selection pressure, with shaking at 230 rpm. Each culture was induced overnight at 37° C. using an auto-induction media.
The pellet from each induced shake flask culture was harvested via centrifugation. Each pellet was resuspended and lysed via sonication. The cell debris was separated from the supernatant via centrifugation. The carboxylate reductases and phosphopantetheine transferase were purified from the supernatant using Ni-affinity chromatography, diluted 10-fold into 50 mM HEPES buffer (pH=7.5) and concentrated via ultrafiltration.
Enzyme activity (i.e., 7-hydroxyheptanoate to 7-hydroxyheptanal) assays were performed in triplicate in a buffer composed of a final concentration of 50 mM HEPES buffer (pH=7.5), 2 mM […], 10 mM MgCl2, 1 mM ATP, and 1 mM NADPH. Each enzyme activity assay reaction was initiated by adding purified carboxylate reductase and phosphopantetheine transferase or the empty vector control to the assay buffer containing the 7-hydroxyheptanoate and then incubated at room temperature for 20 min. The consumption of NADPH was monitored by absorbance at 340 nm.

B1: SEQ ID NO: 31: Segniliparus rugosus carboxylate reductase (protein)
chain: MGDGEERAKRFFQRIGELSATDPQFAAAAPDPAVVEAVSDPSLSFTRYLDTLMRGYAERPALAHRVGAGYETISYGELWARVGAIAAAWQADGLAPGDFVATVGFTSPDYVAVDLAAARSGLVSVPLQAGASLAQLVGILEETEPKVLAASASSLEGAVACALAAPSVQRLVVFDLRGPDASESAADERRGALADAEEQLARAGRAVVVETLADLAARGEALPEAPLFEPAEGEDPLALLIYTSGSTGAPKGAMYSQRLVSQLWGRTPVVPGMPNISLHYMPLSHSYGRAVLAGALSAGGTAHFTANSDLSTLFEDIALARPTFLALVPRVCEMLFQESQRGQDVAELRERVLGGRLLVAVCGSAPLSPEMRAFMEEVLGFPLLDGYGSTEALGVMRNGIIQRPPVIDYKLVDVPELGYRTTDKPYPRGELCIRSTSLISGYYKRPEITAEVFDAQGYYKTGDVMAEIAPDHLVYVDRSKNVLKLSQGEFVAVAKLEAAYGTSPYVKQIFVYGNSERSFLLAVVVPNAEVLGARDQEEAKPLIAASLQKIAKEAGLQSYEVPRDFLIETEPFTTQNGLLSEVGKLLRPKLKARYGEALEARYDEIAHGQADELRALRDGAGQRPVVETVVRAAVAISGSEGAEVGPEANFADLGGDSLSALSLANLLHDVFEVEVPVRIIIGPTASLAGIAKHIEAERAGASAPTAASVHGAGATRIRASELTLEKFLPEDLLAAAKGLPAADQVRTVLLTGANGWLGRFLALEQLERLARSGQDGGKLICLVRGKDAAAARRRIEETLGTDPALAARFAELAEGRLEVVPGDVGEPKFGLDDAAWDRLAEEVDVIVHPAALVNHVLPYHQLFGPNVVGTAEIIRLAITAKRKPVTYLSTVAVAAGVEPSSFEEDGDIRAVVPERPLGDGYANGYGNSKWAGEVLLREAHELVGLPVAVFRSDMILAHTRYTGQLNVPDQFTRLVLSLLATGIAPKSFYQQGAAGERQRAHYDGIPVDFTAEAITTLGAEPSWFDGGAGFRSFDVFNPHHDGVGLDEFVDWLIEAGHPISRIDDHKEWFARFETAVRGLPEAQRQHSLLPLLRAYSFPHPPVDGSVYPTGKFQGAVKAAQVGSDHDVPHLGKALIVKYADDLKALGLL
modifications: Segniliparus rugosus ATCC BAA-974
notes: Segniliparus rugosus carboxylate reductase
[1]
  acceptance of heptanedioate as substrate, forming 7-oxoheptanoate: accepted heptanedioate as substrate
[2]
  acceptance of 7-hydroxyheptanoate as substrate, forming 7-hydroxyheptanal: accepted 7-hydroxyheptanoate as substrate
